Patent US20040233833A1, “Methods for identifying compounds with thrapeutic potential for treatment of central Neurodegenerative diseases resulting from abnormal protein or peptide accumulation” (priority 2001, published 2004)

How the values were obtained:
proteasomes = proteasomes (Homo sapiens, UniProt P28072+P28074+Q99436); test: Proteasomal degradation of fluorescein-labeled polyQ peptides (molecular exclusion chromatography); assay type: biochemical; settings: proteasome + activator, 5 hr incubation
Method: The following peptides were synthesized using routine peptide synthesis:
Each peptide was incubated for 5 hr with proteasomes alone, proteasomes+REGγ, proteasome+REGγ(K188E) or proteasomes+REGα/β. Degradation was assayed by molecular exclusion chromatography using fluorescein as a signal (see FIG. 2). The degradation products were identified by HPLC-MS (FIG. 3). […] By contrast, in the presence of REGγ(K188E) the various polyQ peptides were degraded 5 to 10-fold faster.

[1] = Heptamer stability on rechromatography (Superdex 200 size exclusion column); assay type: physicochemical; settings: for Percent heptamer: after second gel filtration; for Percentage that remained heptamers on rechromatography: Superdex 200 second gel filtration
From the text: To examine the effect of Lys188 substitution on REGγ heptamer stability, the wildtype and Lys 188 variant heptamers were rechromatographed on the Superdex 200 (26/60) size exclusion column used for purification. […] Replacement of Lys 188 by Pro or Phe severely affected the stability of REGγ heptamer.

[2] = molecular target: T1, Human red blood cell proteasomes (Homo sapiens, UniProt P28072+P28074+Q99436); test: Activation of fluorogenic peptide hydrolysis by the proteasome in the presence of REG variants; assay type: biochemical; settings: for Stimulation of cleavage (x-fold) LLE: substrate LLE-βNA (PGPH site); for Stimulation of cleavage (x-fold) LLVY: substrate LLVY-MCA (chymotrypsin-like site); for Stimulation of cleavage (x-fold) LRR: substrate LRR-MCA (trypsin-like site); for Stimulation of hydrolysis of LLVY-MCA and LLE-βNA: summary of Table 1
T1 construct: Human red blood cell proteasomes; from tissue; host or cells: human red blood cells
Method: Human red blood cell proteasomes (170 ng) were mixed with increasing amounts of purified REG variants. The reactions were started by adding 50 μl of 200 μMscu-LLVY-MCA, Boc-LRR-MCA, or Boc-LLE-βNA in 10 mM Tris, pH 7.5. After a 10 min incubation, the reaction was quenched with 200μl of cold 100% ethanol, and the released MCA or βNA ws measured fluometrically. Each data point represents the mean of three measurements from a single experiment. […] REGα (▪), REGγ(□), REGγ(K188E) or REGγ(K188D) (●), REGγ(K188H) (∘), REGγ(K188Q) or REGγ(K188N) (Δ), REGγ(K188A) (♦). The data for REGγ(K188E) and REGγ(K188D) and for REGγ(K188Q) and REGγ(K188N) were combined since their activities were indistinguishable.
Because each positive variant identified in the previous example included a mutation at Lys188, site-directed mutagenesis was used to generate a series of amino acid substitutions at this residue. Twelve mutants were constructed in which Lys188 of REGγ was changed to Ala, Arg, Asn, Asp, Cys, Gln, Glu, His, Ile, Phe, Pro, or Ser. Wild-type REGγ and the Lys 188 variants were expressed in E. coli, purified, and the activation specificity of each protein was measured using the diagnostic peptides LLVY (SEQ ID NO:1)-MCA, LRR-MCA, and LLE-βNA. Except for the K188R variant, all Lys 188 mutants stimulated the hydrolysis of LRR-MCA by the proteasome to the same extent or slightly better than wild-type REGγ. Substitution of negatively-charged Glu or Asp for the positively-charged Lys188 produced mutants with activation properties almost identical to REGα.
To determine the degree to which the activation specificity of REGγ(K188E/D) variants matches that of REGα, proteasomal cleavage of a series of fluorogenic peptides was measured in the presence of each activator.

proteasome = proteasome (Homo sapiens, UniProt P28072+P28074+Q99436); test: REGα(N146Y)/REGβ(N135Y) competition assay for relative proteasome affinity; assay type: binding; settings: in terms of REGα(N146Y)/REGβ(N135Y) competition; wild-type REGγ 100
From the text: As a measure of the relative affinities of REGγ and the REGγLys188 mutants for the proteasome, a competition assay was used. See Li et al. (2000), The Proteasome Activator 11S REG or PA28: Chimeras Implicate Carboxyl-Terminal Sequences in Oligomerization and Proteasome Binding But Not in the Activation of Specific Proteasome Catalytic Subunits. J. Mol. Biol. 299:641-54. All REGγLys188 mutants were relatively resistant to REGα(N146Y)/REGβ(N135Y) competition with apparent proteasome affinities varying from 40% to 90% that of wild-type REGγ.

| % Degraded, substrate F1-EPQPQ (proteasomes) | % Degraded, substrate F1-KSQPQ (proteasomes) | % Degraded, substrate F1-QHQ (proteasomes) | % Degraded, substrate F1-QPQ (proteasomes) | % Degraded, substrate F1-QQQ (proteasomes) | Stimulation of cleavage (x-fold) LLE [2] | Stimulation of cleavage (x-fold) LLVY [2] | Stimulation of cleavage (x-fold) LRR [2] | Stimulation of hydrolysis of LLVY-MCA and LLE-βNA [2] | Relative affinity for proteasome (proteasome) | Substance | Percent heptamer [1] | Percentage that remained heptamers on rechromatography [1] | Heptamers dissociated during the second gel filtration ([1]; Superdex 200) |
| --- | --- | --- | --- | --- | --- | --- | --- | --- | --- | --- | --- | --- | --- |
|  |  |  |  |  | 4 x-fold | 5 x-fold | 14 x-fold |  | 50 | γK188H: mutant REGγ in which Lys188 was changed to His | >95% | remained fully heptameric |  |
|  |  |  |  |  | 5 x-fold | 5 x-fold | 14 x-fold |  | 75 | γK188Q: mutant REGγ in which Lys188 was changed to Gln | 80% |  |  |
|  |  |  |  |  | 0.7 x-fold | 0.7 x-fold | 10 x-fold |  | 75 | γK188R: mutant REGγ in which Lys188 was changed to Arg | >95% | remained fully heptameric |  |

The remaining lines, values behind:

| Substance | % Degraded, substrate F1-EPQPQ (proteasomes) | % Degraded, substrate F1-KSQPQ (proteasomes) | % Degraded, substrate F1-QHQ (proteasomes) | % Degraded, substrate F1-QPQ (proteasomes) | % Degraded, substrate F1-QQQ (proteasomes) | Stimulation of cleavage (x-fold) LLE [2] | Stimulation of cleavage (x-fold) LLVY [2] | Stimulation of cleavage (x-fold) LRR [2] | Stimulation of hydrolysis of LLVY-MCA and LLE-βNA [2] | Relative affinity for proteasome (proteasome) | Percent heptamer [1] | Percentage that remained heptamers on rechromatography [1] | Heptamers dissociated during the second gel filtration ([1]; Superdex 200) |
| --- | --- | --- | --- | --- | --- | --- | --- | --- | --- | --- | --- | --- | --- |
| REGα/β: REGα/β hetero-heptamer proteasome activator | 55% | 85% | 80% | 85% | 85% |  |  |  |  |  |  |  |  |
| γK188A: mutant REGγ in which Lys188 was changed to Ala |  |  |  |  |  | 6 x-fold | 6 x-fold | 13 x-fold | 6 fold | 60 | 60% |  |  |
| γK188F: mutant REGγ in which Lys188 was changed to Phe |  |  |  |  |  | 4 x-fold | 4 x-fold | 13 x-fold |  | 40 | Dimer | remained monomers or dimers |  |
| γK188I: mutant REGγ in which Lys188 was changed to Ile |  |  |  |  |  | 3 x-fold | 2 x-fold | 12 x-fold | 2 fold | 60 | >95% | remained fully heptameric |  |
| γK188P: mutant REGγ in which Lys188 was changed to Pro |  |  |  |  |  | 1 x-fold | 1 x-fold | 12 x-fold |  | 40 | 50% |  | About 50% |
| γKI88S: mutant REGγ in which Lys188 was changed to Ser |  |  |  |  |  | 3 x-fold | 3 x-fold | 14 x-fold |  | 50 | >95% | remained fully heptameric |  |
| γKl88C: mutant REGγ in which Lys188 was changed to Cys |  |  |  |  |  | 5 x-fold | 6 x-fold | 13 x-fold | 6 fold | 60 | 70% |  |  |
